T1: consensus S-HBs protein of HBV genotype I (ConsHBAg_I) (hepatitis B virus genotype I (consensus), UniProt P31873 175-400)
T1 construct: also called genotype I S-HBs
T1 chain: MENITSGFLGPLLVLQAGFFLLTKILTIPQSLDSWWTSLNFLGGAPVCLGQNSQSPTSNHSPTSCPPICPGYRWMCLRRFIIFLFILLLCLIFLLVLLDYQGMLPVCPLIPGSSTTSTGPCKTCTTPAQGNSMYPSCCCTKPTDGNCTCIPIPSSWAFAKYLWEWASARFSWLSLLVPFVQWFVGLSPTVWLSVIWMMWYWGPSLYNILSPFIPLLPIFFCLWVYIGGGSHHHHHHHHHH

T2: consensus S-HBs protein of HBV genotype E (ConsHBAg_E) (hepatitis B virus genotype E (consensus), UniProt Q69603 174-399)
T2 construct: also called genotype E S-HBs
T2 chain: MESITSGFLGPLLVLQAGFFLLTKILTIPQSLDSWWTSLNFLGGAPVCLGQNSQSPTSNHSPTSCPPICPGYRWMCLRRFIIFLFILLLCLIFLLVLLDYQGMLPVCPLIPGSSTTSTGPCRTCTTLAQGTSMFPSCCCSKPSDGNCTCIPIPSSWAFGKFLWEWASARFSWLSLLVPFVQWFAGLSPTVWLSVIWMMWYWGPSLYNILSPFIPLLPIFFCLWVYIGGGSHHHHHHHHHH

B1: Bv4.104 (antibody)
heavy: not shown
light: QSALTQPASVSGSPGQSITISCTGTSSDVGNYKSVSWYQHHPGKAPKFMIYEGTQRPSGVSNRFSGSKSGNTASLTISGLQAEDEAHYYCCSYAGSSTWLFGGGTKLTVLGQPKAAPSVTLFPPSSEELQANKATLVCLISDFYPGAVTVAWKADSSPVKAGVETTTPSKQSNNKYAASSYLSLTPEQWKSHRSYSCQVTHEGSTVEKTVAPTECS
notes: also called PIBv4.104
B2: Bc4.204 (antibody, human IgG1, lambda)
heavy: not shown
light: QSALTQPRSVSGSPGQSVTISCIGTNSDFGRYDYVSWYQQHPDKAPKLLIYDVSQRPSGVPDRFSGSKSGYTASLIISGLQADDEAEYFCCSYAGSFNLVFGGGTKVTVLGQPKAAPSVTLFPPSSEELQANKATLVCLISDFYPGAVTVAWKADSSPVKAGVETTTPSKQSNNKYAASSYLSLTPEQWKSHRSYSCQVTHEGSTVEKTVAPTECS
B3: Bc1.180 (antibody)
heavy: not shown
light: EIVLTQSPGTLSLSPGNRATLSCRASQSVTSNYFAWYQHKPGQAPRVLIYGASSRATGIPDRFSGSGSGTDFTLTISRLEPEDFAVYYCQQFGSLPYTFGQGTKLEIKRTVAAPSVFIFPPSDEQLKSGTASVVCLLNNFYPREAKVQWKVDNALQSGNSQESVTEQDSKDSTYSLSSTLTLSKADYEKHKVYACEVTHQGLSSPVTKSFNRGEC

Columns and labels:
[1] = molecular target: T3, Adw S-HBs protein (adw HBsAg particles, GenHevac (Adw)) (hepatitis B virus, adw subtype); assay: ELISA, AUC of binding curve; parameters: unit not given beside the values
T3 construct: also called GenHevac-B

[2] = molecular target: T4, Ayw S-HBs protein (ayw HBsAg particles, Engerix-B (Ayw)) (hepatitis B virus, ayw subtype); assay: ELISA, AUC of binding curve; parameters: unit not given beside the values
[3] = molecular target: T1, consensus S-HBs protein of HBV genotype …; assay: flow cytometry on cells expressing genotype-specific S-HBs
[4] = molecular target: T5, consensus S-HBs protein of HBV genotype G (ConsHBAg_G) (hepatitis B virus genotype G (consensus), UniProt Q9IBI3 174-399); assay: as above
T5 construct: also called genotype G S-HBs

[5] = molecular target: T6, consensus S-HBs protein of HBV genotype F (ConsHBAg_F) (hepatitis B virus genotype F (consensus), UniProt Q05496 175-400); assay: as above
T6 construct: also called genotype F S-HBs
T6 sequence (Q05496 175-400, tags left off): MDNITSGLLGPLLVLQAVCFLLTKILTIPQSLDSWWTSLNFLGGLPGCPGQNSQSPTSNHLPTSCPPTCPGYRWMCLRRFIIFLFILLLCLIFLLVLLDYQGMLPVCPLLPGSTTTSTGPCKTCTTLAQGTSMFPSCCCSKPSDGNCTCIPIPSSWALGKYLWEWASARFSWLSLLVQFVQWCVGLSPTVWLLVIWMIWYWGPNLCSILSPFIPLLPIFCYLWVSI

[6] = molecular target: T7, consensus S-HBs protein of HBV genotype H (ConsHBAg_H) (hepatitis B virus genotype H (consensus), UniProt Q8JMZ6 175-400); assay: as above
T7 construct: also called genotype H S-HBs
T7 sequence (Q8JMZ6 175-400, tags left off): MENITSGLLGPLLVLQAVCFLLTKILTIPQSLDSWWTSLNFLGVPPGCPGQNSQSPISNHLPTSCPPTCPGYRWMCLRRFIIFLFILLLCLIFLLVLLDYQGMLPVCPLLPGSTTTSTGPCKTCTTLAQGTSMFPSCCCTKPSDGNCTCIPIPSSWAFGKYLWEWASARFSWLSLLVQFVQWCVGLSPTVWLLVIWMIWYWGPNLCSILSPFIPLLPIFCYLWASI

[7] = molecular target: T8, consensus S-HBs protein of HBV genotype B (ConsHBAg_B) (hepatitis B virus genotype B (consensus), UniProt Q9PWW3 175-400); assay: as above
T8 construct: also called genotype B S-HBs

[8] = molecular target: T9, consensus S-HBs protein of HBV genotype A (ConsHBAg_A) (hepatitis B virus genotype A (consensus), UniProt P03141 175-400); assay: as above
T9 construct: also called genotype A S-HBs

[9] = molecular target: T10, consensus S-HBs protein of HBV genotype C (ConsHBAg_C) (hepatitis B virus genotype C (consensus), UniProt P03140 175-400); assay: as above
T10 construct: also called genotype C S-HBs

[10] = molecular target: genotype D S-HBs mutant protein M133T (hepatitis B virus genotype D, UniProt P03138 164-389); assay: flow cytometry, S-HBs-transfected 293-F cells
[11] = molecular target: genotype D S-HBs mutant protein T126A (hepatitis B virus genotype D, UniProt P03138 164-389); assay: flow cytometry, S-HBs-transfected 293-F cells
[12] = molecular target: T1, consensus S-HBs protein of HBV genotype …; assay: flow cytometry, S-HBs-transfected 293-F cells
[13] = molecular target: T5, consensus S-HBs protein of HBV genotype …; assay: flow cytometry, S-HBs-transfected 293-F cells
[14] = molecular target: genotype D S-HBs mutant protein N146S (hepatitis B virus genotype D, UniProt P03138 164-389); assay: flow cytometry, S-HBs-transfected 293-F cells
[15] = molecular target: genotype D S-HBs mutant protein Y134V (hepatitis B virus genotype D, UniProt P03138 164-389); assay: flow cytometry, S-HBs-transfected 293-F cells
[16] = molecular target: T6, consensus S-HBs protein of HBV genotype …; assay: flow cytometry, S-HBs-transfected 293-F cells
[17] = molecular target: T2, consensus S-HBs protein of HBV genotype …; assay: flow cytometry, S-HBs-transfected 293-F cells
[18] = molecular target: T11, consensus S-HBs protein of HBV genotype D (ConsHBAg_D) (hepatitis B virus genotype D (consensus), UniProt P03138 164-389); assay: flow cytometry, S-HBs-transfected 293-F cells
T11 construct: also called genotype D S-HBs; ConsD S-HBs

[19] = molecular target: genotype D S-HBs mutant protein G145R (hepatitis B virus genotype D, UniProt P03138 164-389); assay: flow cytometry, S-HBs-transfected 293-F cells
[20] = molecular target: T7, consensus S-HBs protein of HBV genotype …; assay: flow cytometry, S-HBs-transfected 293-F cells
[21] = molecular target: T8, consensus S-HBs protein of HBV genotype …; assay: flow cytometry, S-HBs-transfected 293-F cells
[22] = molecular target: T9, consensus S-HBs protein of HBV genotype …; assay: flow cytometry, S-HBs-transfected 293-F cells
[23] = molecular target: T10, consensus S-HBs protein of HBV genotype …; assay: flow cytometry, S-HBs-transfected 293-F cells
[24] = molecular target: T3, Adw S-HBs protein (adw HBsAg particles, …); assay: ELISA on recombinant HBV vaccine particles
[25] = molecular target: T4, Ayw S-HBs protein (ayw HBsAg particles, …); assay: ELISA on recombinant HBV vaccine particles
[26] = molecular target: HBV genotype D viruses (produced in HepG2.2.15 cell culture supernatant) (hepatitis B virus genotype D); assay: cell-based or functional assay

| Binder | AUC (serotype binding) [1] | AUC (serotype binding) [2] | binding result [5] | binding result [6] | % of bound S-HBs-expressing cells [10] | % of bound S-HBs-expressing cells [11] | % of bound S-HBs-expressing cells [12] | % of bound S-HBs-expressing cells [13] | % of bound S-HBs-expressing cells [14] | % of bound S-HBs-expressing cells [15] | % of bound S-HBs-expressing cells [16] | % of bound S-HBs-expressing cells [17] | % of bound S-HBs-expressing cells [18] | % of bound S-HBs-expressing cells [19] | % of bound S-HBs-expressing cells [20] | % of bound S-HBs-expressing cells [21] | % of bound S-HBs-expressing cells [22] | % of bound S-HBs-expressing cells [23] | EC50 [24] | EC50 [25] | other results |
| --- | --- | --- | --- | --- | --- | --- | --- | --- | --- | --- | --- | --- | --- | --- | --- | --- | --- | --- | --- | --- | --- |
| B1 | 7 | 37 | no binding | no binding | 64% | 64% | 1% | 1% | 63% | 60% | 1% | 73% | 73% | 54% | 1% | 1% | 1% | 5% | 6580 ng/mL | 4.6 ng/mL | binding result [3]: no binding; binding result [4]: no binding; binding result [7]: no binding; binding result [8]: no binding; binding result [9]: no binding |
| B2 | 36 | 36 | no binding | no binding | 59% | 60% | 58% | 71% | 53% | 57% | 0% | 65% | 68% | 55% | 1% | 65% | 74% | 65% | 15.6 ng/mL | 15 ng/mL | HBV-gD in vitro neutralization (IC50 µg/ml) [26]: 0.000229 µg/mL |
| B3 | 30 | 23 |  |  | 25% | 38% | 22% | 39% | 27% | 25% | 42% | 46% | 47% | 14% | 55% | 45% | 57% | 43% | 65.3 ng/mL | 310 ng/mL | HBV-gD in vitro neutralization (IC50 µg/ml) [26]: 5e-08 µg/mL |

Reference: US20230340081A1 (Hoffmann-La Roche, published 2023)
